According to the supplement of paper PMC11316812:
± gives the standard deviation of the averaged measurements.

Legend:
MCF7 = test: percentage of EdU-negative (G0-arrested) nuclei per well, 72 h; higher = more G0 arrest; details: reference: sequence is the full UniProt precursor, the tested protein was the secreted form or ectodomain
hTERT-HMEC = test: as above; details: reference: sequence is the full UniProt precursor, the tested protein was the secreted form or ectodomain
[1] = protein concentration 0.01392 µM
[2] = protein concentration 0.1392 µM
[3] = protein concentration 0.0055 µM
[4] = protein concentration 0.0225 µM
[5] = protein concentration 0.01175 µM
[6] = protein concentration 0.1175 µM
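Also: secreted proteins added to cultured cells, EdU pulse at the end, nuclei found by Hoechst imaging, EdU status from nuclear versus surrounding ring intensity ratio, PBS as neutral control.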

Row | Sequence | percentage of EdU-negative (MCF7; [4]) [%] | percentage of EdU-negative (MCF7; protein concentration 0.225 µM) [%] | percentage of EdU-negative (hTERT-HMEC; [4]) [%] | percentage of EdU-negative (hTERT-HMEC; protein concentration 0.225 µM) [%] | further results
1 | MRLKNLTFIIILIISGELYAEEKPCGFPHVENGRIAQYYYTFKSFYFPMSIDKKLSFFCLAGYTTESGRQEEQTTCTTEGWSPEPRCFKKCTKPDLSNGYISDVKLLYKIQENMRYGCASGYKTTGGKDEEVVQCLSDGWSSQPTCRKEHETCLAPELYNGNYSTTQKTFKVKDKVQYECATGYYTAGGKKTEEVECLTYGWSLTPKCTKLKCSSLRLIENGYFHPVKQTYEEGDVVQFFCHENYYLSGSDLIQCYNFGWYPESPVCEGRRNRCPPPPLPINSKIQTHSTTYRHGEIVHIECELNFEIHGSAEIRCEDGKWTEPPKCIEGQEKVACEEPPFIENGAANLHSKIYYNGDKVTYACKSGYLLHGSNEITCNRGKWTLPPECVENNENCKHPPVVMNGAVADGILASYATGSSVEYRCNEYYLLRGSKISRCEQGKWSSPPVCLEPCTVNVDYMNRNNIEMKWKYEGKVLHGDLIDFVCKQGYDLSPLTPLSELSVQCNRGEVKYPLCTRKESKGMCTSPPLIKHGVIISSTVDTYENGSSVEYRCFDHHFLEGSREAYCLDGMWTTPPLCLEPCTLSFTEMEKNNLLLKWDFDNRPHILHGEYIEFICRGDTYPAELYITGSILRMQCDRGQLKYPRCIPRQSTLSYQEPLRT | – | – | – | – | percentage of EdU-negative (MCF7; [1]): 26.7 ± 0.98%; percentage of EdU-negative (MCF7; [2]): 25.4 ± 0.69%; percentage of EdU-negative (hTERT-HMEC; [1]): 5.59 ± 0.28%; percentage of EdU-negative (hTERT-HMEC; [2]): 7.25 ± 1.1%
2 | MRLLAKIICLMLWAICVAEDCNELPPRRNTEILTGSWSDQTYPEGTQAIYKCRPGYRSLGNVIMVCRKGEWVALNPLRKCQKRPCGHPGDTPFGTFTLTGGNVFEYGVKAVYTCNEGYQLLGEINYRECDTDGWTNDIPICEVVKCLPVTAPENGKIVSSAMEPDREYHFGQAVRFVCNSGYKIEGDEEMHCSDDGFWSKEKPKCVEISCKSPDVINGSPISQKIIYKENERFQYKCNMGYEYSERGDAVCTESGWRPLPSCEEKSCDNPYIPNGDYSPLRIKHRTGDEITYQCRNGFYPATRGNTAKCTSTGWIPAPRCTLKPCDYPDIKHGGLYHENMRRPYFPVAVGKYYSYYCDEHFETPSGSYWDHIHCTQDGWSPAVPCLRKCYFPYLENGYNQNYGRKFVQGKSIDVACHPGYALPKAQTTVTCMENGWSPTPRCIRVKTCSKSSIDIENGFISESQYTYALKEKAKYQCKLGYVTADGETSGSITCGKDGWSAQPTCIKSCDIPVFMNARTKNDFTWFKLNDTLDYECHDGYESNTGSTTGSIVCGYNGWSDLPICYERECELPKIDVHLVPDRKKDQYKVGEVLKFSCKPGFTIVGPNSVQCYHFGLSPDLPICKEQVQSCGPPPELLNGNVKEKTKEEYGHSEVVEYYCNPRFLMKGPNKIQCVDGEWTTLPVCIVEESTCGDIPELEHGWAQLSSPPYYYGDSVEFNCSESFTMIGHRSITCIHGVWTQLPQCVAIDKLKKCKSSNLIILEEHLKNKKEFDHNSNIRYRCRGKEGWIHTVCINGRWDPEVNCSMAQIQLCPPPPQIPNSHNMTTTLNYRDGEKVSVLCQENYLIQEGEEITCKDGRWQSIPLCVEKIPCSQPPQIEHGTINSSRSSQESYAHGTKLSYTCEGGFRISEENETTCYMGKWSSPPQCEGLPCKSPPEISHGVVAHMSDSYQYGEEVTYKCFEGFGIDGPAIAKCLGEKWSHPPSCIKTDCLSLPSFENAIPMGEKKDVYKAGEQVTYTCATYYKMDGASNVTCINSRWTGRPTCRDTSCVNPPTVQNAYIVSRQMSKYPSGERVRYQCRSPYEMFGDEEVMCLNGNWTEPPQCKDSTGKCGPPPPIDNGDITSFPLSVYAPASSVEYQCQNLYQLEGNKRITCRNGQWSEPPKCLHPCVISREIMENYNIALRWTAKQKLYSRTGESVEFVCKRGYRLSSRSHTLRTTCWDGKLEYPTCAKR | – | – | – | – | percentage of EdU-negative (MCF7; [3]): 25.1 ± 0.8%; percentage of EdU-negative (MCF7; protein concentration 0.055 µM): 25.5 ± 2.4%; percentage of EdU-negative (hTERT-HMEC; [3]): 5.14 ± 0.38%; percentage of EdU-negative (hTERT-HMEC; protein concentration 0.055 µM): 7.65 ± 0.92%
3 | MRLLCGLWLWLSLLKVLQAQTPTPLPLPPPMQSFQGNQFQGEWFVLGLAGNSFRPEHRALLNAFTATFELSDDGRFEVWNAMTRGQHCDTWSYVLIPAAQPGQFTVDHGVEPGADREETRVVDSDYTQFALMLSRRHTSRLAVLRISLLGRSWLLPPGTLDQFICLGRAQGLSDDNIVFPDVTGWSPQASVC [Q6JVE5] | 28.3 ± 4 | 32.23 ± 0.31 | 4.84 ± 0.32 | 5.1 ± 0.82 | –
4 | MRLLPLAPGRLRRGSPRHLPSCSPALLLLVLGGCLGVFGVAAGTRRPNVVLLLTDDQDEVLGGMTPLKKTKALIGEMGMTFSSAYVPSALCCPSRASILTGKYPHNHHVVNNTLEGNCSSKSWQKIQEPNTFPAILRSMCGYQTFFAGKYLNEYGAPDAGGLEHVPLGWSYWYALEKNSKYYNYTLSINGKARKHGENYSVDYLTDVLANVSLDFLDYKSNFEPFFMMIATPAPHSPWTAAPQYQKAFQNVFAPRNKNFNIHGTNKHWLIRQAKTPMTNSSIQFLDNAFRKRWQTLLSVDDLVEKLVKRLEFTGELNNTYIFYTSDNGYHTGQFSLPIDKRQLYEFDIKVPLLVRGPGIKPNQTSKMLVANIDLGPTILDIAGYDLNKTQMDGMSLLPILRGASNLTWRSDVLVEYQGEGRNVTDPTCPSLSPGVSQCFPDCVCEDAYNNTYACVRTMSALWNLQYCEFDDQEVFVEVYNLTADPDQITNIAKTIDPELLGKMNYRLMMLQSCSGPTCRTPGVFDPGYRFDPRLMFSNRGSVRTRRFSKHLL | – | – | – | – | percentage of EdU-negative (MCF7; [5]): 25.19 ± 0.18%; percentage of EdU-negative (MCF7; [6]): 25.1 ± 1.3%; percentage of EdU-negative (hTERT-HMEC; [5]): 5.009 ± 0.019%; percentage of EdU-negative (hTERT-HMEC; [6]): 5.44 ± 1.4%
5 | MRLLPLLRTVLWAAFLGSPLRGGSSLRHVVYWNSSNPRLLRGDAVVELGLNDYLDIVCPHYEGPGPPEGPETFALYMVDWPGYESCQAEGPRAYKRWVCSLPFGHVQFSEKIQRFTPFSLGFEFLPGETYYYISVPTPESSGQCLRLQVSVCCKERKSESAHPVGSPGESGTSGWRGGDTPSPLCLLLLLLLLILRLLRIL | 27.2 ± 2.5 | 25.7 ± 0.36 | 5.7 ± 0.081 | 8.57 ± 0.56 | –
6 | MRLLQLLFRASPATLLLVLCLQLGANKAQDNTRKIIIKNFDIPKSVRPNDEVTAVLAVQTELKECMVVKTYLISSIPLQGAFNYKYTACLCDDNPKTFYWDFYTNRTVQIAAVVDVIRELGICPDDAAVIPIKNNRFYTIEILKVE | 25.1 ± 2.6 | 25.5 ± 0.54 | 4.779 ± 0.024 | 5.95 ± 1.6 | –
7 | MRLLVLLWGCLLLPGYEALEGPEEISGFEGDTVSLQCTYREELRDHRKYWCRKGGILFSRCSGTIYAEEEGQETMKGRVSIRDSRQELSLIVTLWNLTLQDAGEYWCGVEKRGPDESLLISLFVFPGPCCPPSPSPTFQPLATTRLQPKAKAQQTQPPGLTSPGLYPAATTAKQGKTGAEAPPLPGTSQYGHERTSQYTGTSPHPATSPPAGSSRPPMQLDSTSAEDTSPALSSGSSKPRVSIPMVRILAPVLVLLSLLSAAGLIAFCSHLLLWRKEAQQATETQRNEKFCLSRLTAEEKEAPSQAPEGDVISMPPLHTSEEELGFSKFVSA [K7EL06] | 26 ± 1.2 | 24.7 ± 3.6 | 5.2 ± 0.081 | 5.26 ± 0.58 | –
